Laboratory results published in article PMC11461620 (Nature Communications, 2024).

Molecular target: the molecule itself
Assay: crystal structure

B1: β-barrel domain of E. coli BamA (residues 426–810) (domain or fragment)
chain: not shown
modifications: biotin (EZ-Link NHS-PEG4-Biotin, chemical) in the SPR experiment only
  binding result: binds
